Molecular target: 92BR020 SOSIP gp140 trimer (stabilized pre-fusion HIV-1 envelope glycoprotein, SOSIP v.7) (HIV-1 subtype B strain 92BR020)
Experiment: negative-stain electron microscopy; SOSIP proteins diluted in Tris-buffered saline to ~0.02 mg/mL, adsorbed onto carbon-coated copper grids, stained with 2% uranyl formate; 2D classification compared with published well-folded SOSIP trimers

With “92BR020 SOSIP gp140 trimer (stabilized pre-fusion HIV-1 envelope glycoprotein, SOSIP v.7) (natural protein)” the stoichiometry N was 3.

From article PMC11634010
